Laboratory results taken from patent US20230060388A1.

Tests used:
[1] = biological target: human TIGIT expressed on cells (stably transfected Jurkat cells) (human) (UniProt Q495A1); experiment: cell-based or functional assay
[2] = biological target: recombinant cynomolgus TIGIT (cynomolgus monkey); experiment: ELISA on recombinant cyno-TIGIT
[3] = biological target: recombinant human TIGIT extracellular domain (ECD) (human) (UniProt Q495A1); experiment: ELISA on recombinant human TIGIT ECD
[4] = biological target: human TIGIT expressed on cells (stably transfected Jurkat cells) (human) (UniProt Q495A1); experiment: whole cell binding, flow cytometry, n=3 (FIG. 10A)
[5] = biological target: human TIGIT expressed on cells (stably transfected Jurkat cells) (human) (UniProt Q495A1); experiment: flow cytometry on h-TIGIT transfected Jurkat cells (whole cell binding), Alexa Fluor 488; representative of three experiments
[6] = biological target: recombinant mouse TIGIT (mouse) (UniProt P86176); experiment: ELISA on recombinant mouse-TIGIT
Sequence of recombinant mouse TIGIT (mouse) (P86176 29-148 limits assumed): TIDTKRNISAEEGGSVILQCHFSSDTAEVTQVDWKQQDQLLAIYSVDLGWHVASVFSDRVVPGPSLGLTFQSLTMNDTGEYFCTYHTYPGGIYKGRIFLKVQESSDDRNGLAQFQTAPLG

Sequence of human TIGIT expressed on cells (stably transfected Jurkat cells) (human) (Q495A1 22-244 limits assumed): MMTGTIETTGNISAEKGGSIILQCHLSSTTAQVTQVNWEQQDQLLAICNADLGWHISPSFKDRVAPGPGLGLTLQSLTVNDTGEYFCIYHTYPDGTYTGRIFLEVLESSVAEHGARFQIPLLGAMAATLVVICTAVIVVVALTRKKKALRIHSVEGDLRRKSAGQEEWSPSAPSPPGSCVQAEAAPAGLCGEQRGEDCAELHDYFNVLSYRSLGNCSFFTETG
Sequence of recombinant human TIGIT extracellular domain (ECD) (human) (Q495A1 22-138 limits assumed): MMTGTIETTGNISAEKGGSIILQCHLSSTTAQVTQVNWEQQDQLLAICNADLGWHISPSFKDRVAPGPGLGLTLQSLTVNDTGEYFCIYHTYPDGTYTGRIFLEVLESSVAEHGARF

| Substance | EC50, NFAT luciferase reporter assay (n=3) [1] | EC50 (read off the curve) [2] | EC50 (read off the curve) [3] | EC50 [4] | EC50 (read off the curve) [5] | EC50 (read off the curve) [6] |
| --- | --- | --- | --- | --- | --- | --- |
| Reference Ab 2 (same amino acid sequences as Tiragolumab) (antibody) | 720 pM | 0.1 µg/mL | 0.1 µg/mL | 610 pM | 500 pM | – |
| anti-mouse TIGIT reference antibody (Biolegend #142101) | – | – | – | – | – | 0.08 µg/mL |
